Laboratory results reported in the supplement of paper PMC9112550, “Optimization of the antimicrobial peptide Bac7 by deep mutational scanning” (BMC Biology, 2022).

system: Escherichia coli TOP10; assay: shrunken log2 fold change of peptide-encoding DNA abundance (4.5 h post-induction vs induction); higher = less antimicrobial activity (less host growth inhibition); conditions: time post-induction: 4.5 h; library: site-saturation at positions 5, 18, 19, 20
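Note: peptides expressed intracellularly from a pBAD plasmid library in pooled LB shake-flask culture, induced with 0.3% L-arabinose, DNA abundance read by NGS, three biological replicates, DESeq2 with apeglm shrinkage.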

| Sequence | shrunken log2 fold change |
| --- | --- |
| RRIRQRPPRLPRPRPRPIRKPRP | -0.0469 |
| RRIRARPPRLPRPRPRPTTKPRP | 0.541 |
| RRIRNRPPRLPRPRPRPYFIPRP | -0.645 |
| RRIRPRPPRLPRPRPRPRDMPRP | 0.201 |
| RRIRFRPPRLPRPRPRPICTPRP | -0.218 |
| RRIRSRPPRLPRPRPRPLNTPRP | -0.563 |
| RRIRRRPPRLPRPRPRPISNPRP | -0.269 |
| RRIRSRPPRLPRPRPRPRQPPRP | 0.268 |
| RRIRWRPPRLPRPRPRPAPVPRP | 0.433 |
| RRIRQRPPRLPRPRPRPIMAPRP | -0.0123 |
| RRIRPRPPRLPRPRPRPKEWPRP | -0.00152 |
| RRIRNRPPRLPRPRPRPAYTPRP | -0.262 |
| RRIRQRPPRLPRPRPRPVDFPRP | 0.0196 |
| RRIRERPPRLPRPRPRPAYDPRP | -0.394 |
| RRIRMRPPRLPRPRPRPKTSPRP | 0.641 |
| RRIRARPPRLPRPRPRPSKFPRP | -0.163 |
| RRIRPRPPRLPRPRPRPKMPPRP | -0.0926 |
| RRIRERPPRLPRPRPRPSIMPRP | -1.02 |
| RRIRLRPPRLPRPRPRPQSNPRP | -0.0786 |
| RRIRNRPPRLPRPRPRPKMTPRP | -0.149 |

| Sequence | shrunken log2 fold change |
| --- | --- |
| RRIRLRPPRLPRPRPRPRCWPRP | 0.371 |
| RRIRFRPPRLPRPRPRPVVVPRP | -0.0228 |
| RRIRWRPPRLPRPRPRPMACPRP | -0.0978 |
| RRIRIRPPRLPRPRPRPEVQPRP | -0.022 |
| RRIRFRPPRLPRPRPRPHINPRP | -0.634 |
| RRIRSRPPRLPRPRPRPMYKPRP | -1.13 |
| RRIRSRPPRLPRPRPRPFEGPRP | 0.123 |
| RRIRARPPRLPRPRPRPCNQPRP | -0.253 |
| RRIRWRPPRLPRPRPRPVFNPRP | -0.259 |
| RRIRLRPPRLPRPRPRPETKPRP | 0.00291 |
| RRIRSRPPRLPRPRPRPCRAPRP | -0.0808 |
| RRIRPRPPRLPRPRPRPTDFPRP | -0.193 |
| RRIRWRPPRLPRPRPRPWIYPRP | 0.0862 |
| RRIRSRPPRLPRPRPRPCDMPRP | -0.184 |
| RRIRYRPPRLPRPRPRPEIIPRP | -0.0841 |
| RRIRWRPPRLPRPRPRPKIKPRP | -0.0556 |
| RRIRRRPPRLPRPRPRPEPNPRP | -0.00852 |
| RRIRTRPPRLPRPRPRPWGDPRP | -0.273 |
| RRIRNRPPRLPRPRPRPHFYPRP | -0.816 |
| RRIRRRPPRLPRPRPRPKVTPRP | -0.131 |

| Sequence | shrunken log2 fold change |
| --- | --- |
| RRIRQRPPRLPRPRPRPTWIPRP | -0.057 |
| RRIRARPPRLPRPRPRPNGFPRP | 0.113 |
| RRIRQRPPRLPRPRPRPMYNPRP | -0.545 |
| RRIRKRPPRLPRPRPRPKAYPRP | 0.0431 |
| RRIRVRPPRLPRPRPRPPCVPRP | -0.112 |
| RRIRCRPPRLPRPRPRPEMLPRP | -0.077 |
| RRIRMRPPRLPRPRPRPDKMPRP | 0.323 |
| RRIRGRPPRLPRPRPRPLYNPRP | -0.247 |
| RRIRIRPPRLPRPRPRPHYLPRP | -0.0913 |
| RRIRMRPPRLPRPRPRPENIPRP | 0.0472 |
| RRIRLRPPRLPRPRPRPCSHPRP | -0.226 |
| RRIRLRPPRLPRPRPRPVTGPRP | -0.121 |
| RRIRTRPPRLPRPRPRPQPGPRP | 0.165 |
| RRIRRRPPRLPRPRPRPNANPRP | 0.58 |
| RRIRFRPPRLPRPRPRPQMGPRP | -0.209 |
| RRIRLRPPRLPRPRPRPAGPPRP | 0.338 |
| RRIRSRPPRLPRPRPRPFTEPRP | -0.0824 |
| RRIRSRPPRLPRPRPRPMSGPRP | 0.131 |
| RRIRMRPPRLPRPRPRPRCLPRP | -0.0778 |
| RRIRLRPPRLPRPRPRPALWPRP | 0.754 |
